Biological target: Cynomolgus monkey Tau monomer (cynomolgus monkey)
Assay: SPR 37C, hIgG captured, cyno Tau monomer 0.1-33.3 nM

Chain of Cynomolgus monkey Tau monomer (cynomolgus monkey) (P10636 other isoform, or with tags, fused parts or gaps): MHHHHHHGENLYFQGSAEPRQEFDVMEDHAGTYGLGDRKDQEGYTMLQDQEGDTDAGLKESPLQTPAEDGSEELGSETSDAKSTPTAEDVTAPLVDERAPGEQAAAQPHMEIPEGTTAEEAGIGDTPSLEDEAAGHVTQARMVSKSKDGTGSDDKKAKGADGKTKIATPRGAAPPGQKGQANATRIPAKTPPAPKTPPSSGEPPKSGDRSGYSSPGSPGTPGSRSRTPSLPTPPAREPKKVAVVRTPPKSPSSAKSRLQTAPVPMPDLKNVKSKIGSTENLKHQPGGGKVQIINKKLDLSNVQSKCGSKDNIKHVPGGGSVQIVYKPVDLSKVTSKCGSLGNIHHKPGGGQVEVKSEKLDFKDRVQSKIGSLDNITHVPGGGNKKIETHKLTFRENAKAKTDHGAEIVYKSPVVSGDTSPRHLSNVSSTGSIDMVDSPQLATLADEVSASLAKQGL

Kd	koff	kon	Binder
0.1 nM	0.00114 s⁻¹	9.27e+06 M⁻¹ s⁻¹	hu37D3-H9.v76 (antibody, V domains shown) VH: EVQLVESGGGLVQPGGSLRLSCAASGLIFRSYGMSWVRQAPGKGLEWVATINSGGTRTYYPDSVKGRFTISRDNSKNTLYLQMNSLRAEDTAVYYCANSYSGAMDYWGQGTLVTVSS VL: DDLLTQTPLSLPVTPGQPASISCRSSQSIVHSNGNTYLEWYLQKPGQSPQLLIYKVSNRFSGVPDRFSGSGSGTDFTLKISRVEAEDVGVYYCFQGTLVPWTFGQGTKVEIK
0.1 nM	0.00114 s⁻¹	9.55e+06 M⁻¹ s⁻¹	hu37D3-H9.v83 (antibody, V domains shown) VH: EVQLLESGGGLVQPGGSLRLSCAASGLIFRSYGMSWVRQAPGKGLEWVATINSGGTRTYYPDSVKGRFTISRDNSKNTLYLQMNSLRAEDTAVYYCANSYSGAMDYWGQGTLVTVSS VL: DDLLTQSPLSLPVTLGQPASISCRSSQSIVHSNGNTYLEWYQQRPGQSPRLLIYKVSNRFSGVPDRFSGSGSGTDFTLKISRVEAEDVGVYYCFQGTLVPWTFGQGTKVEIK
0.1 nM	0.00178 s⁻¹	1.29e+07 M⁻¹ s⁻¹	hu37D3-H9.v93 (antibody, V domains shown) VH: EVQLVESGGGLVQPGGSLRLSCAASGLIFRSYGMSWVRQAPGKGLEWVATINSGGTRTYYPDSVKGRFTISRDNSKNTLYLQMNSLRAEDTAVYYCANSYSGAMDYWGQGTLVTVSS VL: EDLLTQSPSSLSASVGDRVTITCRSSQSIVHSNGNTYLEWYQQKPGKSPKLLIYKVSNRFSGVPSRFSGSGSGTDFTLTISSLQPEDFATYYCFQGTLVPWTFGQGTKVEIK
